The text below walks through data of publication PMC12487890.

The target of test [1] is interferon-induced transmembrane protein 3 (IFITM3), human, untagged (UniProt Q01628). Nature of the test: co-immunoprecipitation (anti-HA IP, anti-IFITM3 immunoblot), IFITM3/HA band ratio. Conditions: mean of two co-IPs from independent transfections. On the technique in general: In western blotting, separated proteins are transferred to a membrane and probed.
Test [2] shares this target. Nature of the test: proximity ligation assay (anti-IFITM3 and anti-HA, confocal microscopy). To be noted: HEK293T cells transfected with pCMV-IFITM3 (0.50 μg) and pBJ-97ZANef-HA WT or mutant (0.25 μg); mean of 6 to 12 cells per condition; parent: 20,209.
[3] abbreviates: HEK293T cells cotransfected with pCMV-IFITM3 (0.50 μg) and pBJ-97ZA Nef-HA WT or mutant (0.25 μg), parent: 100.
The mark [4] stands for this setting: HEK293T cells cotransfected with pCMV-IFITM3 (0.50 μg) and pBJ-97ZANef-HA WT or mutant (0.25 μg).

Chain of UniProt Q01628 (Q01628 whole entry): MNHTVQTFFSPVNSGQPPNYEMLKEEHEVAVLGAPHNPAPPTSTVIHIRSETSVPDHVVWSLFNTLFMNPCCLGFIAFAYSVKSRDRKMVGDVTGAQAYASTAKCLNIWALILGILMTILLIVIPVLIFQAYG

As for “97ZA013 Nef-HA, wild type (HIV-1 clade C primary isolate) R192F; R193H”, the percent of parent in test [1] (setting [3]) is 188%.

“97ZA013 Nef-HA, wild type (HIV-1 clade C primary isolate) S152D; E153K”: the percent of parent in test [1] (setting [3]) was 42%.

For “97ZA013 Nef-HA, wild type (HIV-1 clade C primary isolate) R17A; R19A; R21A; R22A”, the response (corrected total cell fluorescence) in test [2] turned out to be 7580. The percent of parent in test [1] (setting [4]) was determined as 16%.

On to “97ZA013 Nef-HA, wild type (HIV-1 clade C primary isolate) E153K”, for which the percent of parent in test [1] (setting [3]) was determined as 73%.

With “97ZA013 Nef-HA, wild type (HIV-1 clade C primary isolate) N163T; C164S”, the percent of parent in test [1] (setting [3]) was determined as 217%.

On to “97ZA013 Nef-HA, wild type (HIV-1 clade C primary isolate) G2A”, for which the response (corrected total cell fluorescence) in test [2] is 3000. In test [1] (setting [4]), the percent of parent worked out at 1%.

For the substance “97ZA013 Nef-HA, wild type (HIV-1 clade C primary isolate) M20A”, in test [2], the response (corrected total cell fluorescence) was 17200. For the same substance, the percent of parent in test [1] (setting [4]) was 124%.

Regarding “97ZA013 Nef-HA, wild type (HIV-1 clade C primary isolate) M169V; Q171L”, in test [1] (setting [3]), the percent of parent came to 244%.

As to “97ZA013 Nef-HA, wild type (HIV-1 clade C primary isolate) L165A; L166A”, the response (corrected total cell fluorescence) in test [2] was 12000. Also, the percent of parent in test [1] (setting [4]) stood at 87%.
